Reference: patent US11278600B2, “Human alpha-galactosidase variants” (Codexis, Inc., priority 2014, dated 2022)
Numbering of substitutions follows the chain as printed.

B1: 370 (protein)
chain: LDNGLARTPTMGWLHWERFMCNLDCQEEPDSCISEKLFMEMAEQMVSEGWKDAGYEYLCIDDCWMAPQRDSEGRLQADPQRFPHGIRQLANYVHSKGLKLGIYADVGNKTCAGFPGSFGYYDIDAQTFADWGVDLLKFDGCYCDSLENLADGYKHMSLALNRTGRSIVYSCEWPLYMWPFQKPNYTEIRQYCNHWRNFADIDDSWKSIKSILDWTSRNQERIVDVAGPGGWNDPDMLVIGNFGLSWDQQVTQMALWAIMAAPLFMSNDLRHISPQAKALLQDKDVIAINQDPLGKQGYQLRKGDNFEVWERPLSGDAWAVAIINRQEIGGPRSYTIPVASLGKGVACNPACFITQLLPVKRQLGFYNWTSRLKSHINPTGTVLLQLENTMQMSLKDLL
modifications: Synthetic Polypeptide sequence of Variant No. 370 of mature Human GLA
B2: 482 (protein)
chain: LDNGLARTPTMGWLHWERFMCNLDCQEEPDSCISEKLFMEMAERMVSEGWKDAGYEYLCIDDCWMAPQRDSEGRLQADPQRFPHGIRQLANYVHSKGLKLGIYADVGNKTCAGFPGSFGYYDIDAQTFADWGVDLLKFDGCYCDSLENLADGYKHMSLALNRTGRSIVYSCEWPLYMWPFQKPNYTEIRQYCNHWRNFADIDDSWKSIKSILDWTSFNQERIVDVAGPGGWNDPDMLVIGNFGLSWNQQVTQMALWAIMAAPLFMSNDLRHISPQAKALLQDKDVIAINQDPLGKQGYQLRQGDNFEVWERPLSGLAWAVAMINRQEIGGPRSYTIAVASLGKGVACNPACFITQLLPVKRKLGFYEWTSRLRSHINPTGTVLLGLENTMQMSLKDLL
modifications: Synthetic Polypeptide sequence of Variant No. 482 of mature Human GLA
B3: 488 (protein)
chain: B2 chain with G385Q, T389N
modifications: Synthetic Polypeptide sequence of Variant No. 488 of mature Human GLA
B4: 493 (protein)
chain: B2 chain with G385Q, M392P
modifications: Synthetic Polypeptide sequence of Variant No. 493 of mature Human GLA
B5: 491 (protein)
chain: B2 chain with G385Q, M390W
modifications: Synthetic Polypeptide sequence of Variant No. 491 of mature Human GLA
B6: 492 (protein)
chain: B2 chain with G385Q, T389C
modifications: Synthetic Polypeptide sequence of Variant No. 492 of mature Human GLA
B7: 486 (protein)
chain: B2 chain with G385Q, M390C
modifications: Synthetic Polypeptide sequence of Variant No. 486 of mature Human GLA
B8: 489 (protein)
chain: B2 chain with G385Q, T389I
modifications: Synthetic Polypeptide sequence of Variant No. 489 of mature Human GLA
B9: 484 (protein)
chain: B2 chain with G385Q, M392V
modifications: Synthetic Polypeptide sequence of Variant No. 484 of mature Human GLA
B10: 487 (protein)
chain: B2 chain with G385Q, T389G
modifications: Synthetic Polypeptide sequence of Variant No. 487 of mature Human GLA
B11: 483 (protein)
chain: B2 chain with G385Q, M392C
modifications: Synthetic Polypeptide sequence of Variant No. 483 of mature Human GLA
B12: 485 (protein)
chain: B2 chain with G385Q, M392W
modifications: Synthetic Polypeptide sequence of Variant No. 485 of mature Human GLA
B13: 490 (protein)
chain: B2 chain with G385Q, M390D
modifications: Synthetic Polypeptide sequence of Variant No. 490 of mature Human GLA
B14: 494 (protein)
chain: B2 chain with G385Q, M390F
modifications: Synthetic Polypeptide sequence of Variant No. 494 of mature Human GLA

How the values were obtained:
Type in all cases: biochemical
[1] = HTP-analysis of yeast culture supernatants, no challenge (MUGal hydrolysis); conditions: activity of the variant/activity of Rd4BB (SEQ ID NO: 15)
Outline: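 Activity read as 4-methylumbelliferyl α-D-galactopyranoside hydrolysis: fluorescence (355/448 nm) after sodium carbonate stop, following 30-180 min at 37° C with 2 mM MUGal stock at pH 4.6–4.8. Enzyme source is unchallenged culture supernatant of INVSc1 yeast expressing GLA variants, grown 66-84 h at 30° C.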

[2] = HTP-analysis of supernatants pretreated with base (MUGal hydrolysis); conditions: activity of the variant/activity of Rd4BB (SEQ ID NO: 15); challenge at pH 9.65
Outline: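 GLA variants secreted from yeast INVSc1; culture supernatants pre-incubated with McIlvaine buffer pH 7.0–8.2 or 200 mM bicarbonate pH 9.1–9.7 at 37° C. for 1–18 h. Residual activity: MUGal (4 mM stock) hydrolysis at pH 4.3–4.8, 37° C., 30–180 min, carbonate quench; fluorescence Ex 355/Em 448 nm.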

[3] = HTP-analysis of supernatants pretreated with acid (MUGal hydrolysis); conditions: activity of the variant/activity of Rd4BB (SEQ ID NO: 15); challenge at pH 3.7
Outline: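 GLA variants were secreted from INVSc1 yeast grown 66-84 h at 30° C. in SD-Ura with 2% glucose; supernatants were mixed with McIlvaine buffer pH 3.3-4.3 and held at 37° C. for 1-3 h. Residual activity on MUGal at pH 4.8 was then measured by fluorescence.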

Row | Molecule | Relative Activity of GLA Variants After No Challenge (NC) [1] | Relative Activity of GLA Variants After Challenge at pH 9.65 [2] | Relative Activity of GLA Variants After Challenge at pH 3.7 [3]
1 | B1 | + (0.5 to 1.5 relative activity over Rd4BB (SEQ ID NO: 15)) | + (0.5 to 1.5 relative activity over Rd4BB (SEQ ID NO: 15)) | ++ (>1.5 to 2.5 relative activity over Rd4BB (SEQ ID NO: 15))
2 | B2 | + (0.5 to 1.5 relative activity over Rd4BB (SEQ ID NO: 15)) | + (0.5 to 1.5 relative activity over Rd4BB (SEQ ID NO: 15)) | + (0.5 to 1.5 relative activity over Rd4BB (SEQ ID NO: 15))
3 | B3 | + (0.5 to 1.5 relative activity over Rd4BB (SEQ ID NO: 15)) | + (0.5 to 1.5 relative activity over Rd4BB (SEQ ID NO: 15)) | + (0.5 to 1.5 relative activity over Rd4BB (SEQ ID NO: 15))
4 | B4 | + (0.5 to 1.5 relative activity over Rd4BB (SEQ ID NO: 15)) | + (0.5 to 1.5 relative activity over Rd4BB (SEQ ID NO: 15)) | + (0.5 to 1.5 relative activity over Rd4BB (SEQ ID NO: 15))
5 | B5 | + (0.5 to 1.5 relative activity over Rd4BB (SEQ ID NO: 15)) | + (0.5 to 1.5 relative activity over Rd4BB (SEQ ID NO: 15)) | + (0.5 to 1.5 relative activity over Rd4BB (SEQ ID NO: 15))
6 | B6 | + (0.5 to 1.5 relative activity over Rd4BB (SEQ ID NO: 15)) | + (0.5 to 1.5 relative activity over Rd4BB (SEQ ID NO: 15)) | + (0.5 to 1.5 relative activity over Rd4BB (SEQ ID NO: 15))
7 | B7 | + (0.5 to 1.5 relative activity over Rd4BB (SEQ ID NO: 15)) | + (0.5 to 1.5 relative activity over Rd4BB (SEQ ID NO: 15)) | + (0.5 to 1.5 relative activity over Rd4BB (SEQ ID NO: 15))
8 | B8 | + (0.5 to 1.5 relative activity over Rd4BB (SEQ ID NO: 15)) | + (0.5 to 1.5 relative activity over Rd4BB (SEQ ID NO: 15)) | + (0.5 to 1.5 relative activity over Rd4BB (SEQ ID NO: 15))
9 | B9 | + (0.5 to 1.5 relative activity over Rd4BB (SEQ ID NO: 15)) | + (0.5 to 1.5 relative activity over Rd4BB (SEQ ID NO: 15)) | + (0.5 to 1.5 relative activity over Rd4BB (SEQ ID NO: 15))
10 | B10 | + (0.5 to 1.5 relative activity over Rd4BB (SEQ ID NO: 15)) | + (0.5 to 1.5 relative activity over Rd4BB (SEQ ID NO: 15)) | + (0.5 to 1.5 relative activity over Rd4BB (SEQ ID NO: 15))
11 | B11 | + (0.5 to 1.5 relative activity over Rd4BB (SEQ ID NO: 15)) | + (0.5 to 1.5 relative activity over Rd4BB (SEQ ID NO: 15)) | + (0.5 to 1.5 relative activity over Rd4BB (SEQ ID NO: 15))
12 | B12 | + (0.5 to 1.5 relative activity over Rd4BB (SEQ ID NO: 15)) | + (0.5 to 1.5 relative activity over Rd4BB (SEQ ID NO: 15)) | + (0.5 to 1.5 relative activity over Rd4BB (SEQ ID NO: 15))
13 | B13 | + (0.5 to 1.5 relative activity over Rd4BB (SEQ ID NO: 15)) | + (0.5 to 1.5 relative activity over Rd4BB (SEQ ID NO: 15)) | + (0.5 to 1.5 relative activity over Rd4BB (SEQ ID NO: 15))
14 | B14 | + (0.5 to 1.5 relative activity over Rd4BB (SEQ ID NO: 15)) | + (0.5 to 1.5 relative activity over Rd4BB (SEQ ID NO: 15)) | + (0.5 to 1.5 relative activity over Rd4BB (SEQ ID NO: 15))
